The results in this text go back to patent publication US20140087995A1 (published 2014).

As usually defined, the IC50 is the concentration that inhibits the measured activity by half.

Sequences and labels used below:
T1: human amylin receptor (amylin 3(a) receptor: human calcitonin receptor with RAMP-3) (human, UniProt P30988 25-474; O60896 24-148)
T1 construct: whole, on cells; also called hAmylin-R; hAmylinR
T1 sequence (looked up) 1: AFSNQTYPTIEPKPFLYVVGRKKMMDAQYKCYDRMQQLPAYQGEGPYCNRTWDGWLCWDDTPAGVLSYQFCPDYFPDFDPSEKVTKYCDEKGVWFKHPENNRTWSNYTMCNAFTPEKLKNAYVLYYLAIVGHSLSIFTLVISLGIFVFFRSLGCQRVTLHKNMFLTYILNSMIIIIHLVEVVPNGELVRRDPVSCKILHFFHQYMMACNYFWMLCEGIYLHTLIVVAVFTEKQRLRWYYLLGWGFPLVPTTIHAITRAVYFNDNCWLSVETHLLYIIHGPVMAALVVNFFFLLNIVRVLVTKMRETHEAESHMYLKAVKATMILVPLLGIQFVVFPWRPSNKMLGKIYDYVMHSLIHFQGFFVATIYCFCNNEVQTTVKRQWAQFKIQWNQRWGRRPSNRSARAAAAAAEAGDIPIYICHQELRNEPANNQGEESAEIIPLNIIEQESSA
T1 sequence (looked up) 2: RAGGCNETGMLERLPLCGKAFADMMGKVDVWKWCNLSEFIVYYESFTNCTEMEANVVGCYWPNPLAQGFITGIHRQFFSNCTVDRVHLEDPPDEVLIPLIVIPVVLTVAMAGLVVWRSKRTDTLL

B1: N^ε1-[(4S)-4-carboxy-4-(19-carboxynonadecanoylamino)butanoyl]-[Arg17,Pro21,Pro27,Lys35]-h-amylin (peptide)
peptide: K([γGlu-C20 diacid])CNTATCATQRLANFLRHSSPNFGAIPSSTNVGSKTY-NH2
modifications: disulfide 2-7; N-terminus assumed
SMILES: CC[C@H](C)[C@H](NC(=O)[C@H](C)NC(=O)CNC(=O)[C@H](Cc1ccccc1)NC(=O)[C@H](CC(N)=O)NC(=O)[C@@H]1CCCN1C(=O)[C@H](CO)NC(=O)[C@H](CO)NC(=O)[C@H](Cc1c[nH]cn1)NC(=O)[C@H](CCCNC(=N)N)NC(=O)[C@H](CC(C)C)NC(=O)[C@H](Cc1ccccc1)NC(=O)[C@H](CC(N)=O)NC(=O)[C@H](C)NC(=O)[C@H](CC(C)C)NC(=O)[C@H](CCCNC(=N)N)NC(=O)[C@H](CCC(N)=O)NC(=O)[C@@H](NC(=O)[C@H](C)NC(=O)[C@@H]1CSSC[C@H](NC(=O)[C@@H](N)CCCCNC(=O)CC[C@H](NC(=O)CCCCCCCCCCCCCCCCCCC(=O)O)C(=O)O)C(=O)N[C@@H](CC(N)=O)C(=O)N[C@@H]([C@@H](C)O)C(=O)N[C@@H](C)C(=O)N[C@@H]([C@@H](C)O)C(=O)N1)[C@@H](C)O)C(=O)N1CCC[C@H]1C(=O)N[C@@H](CO)C(=O)N[C@@H](CO)C(=O)N[C@H](C(=O)N[C@@H](CC(N)=O)C(=O)N[C@H](C(=O)NCC(=O)N[C@@H](CO)C(=O)N[C@@H](CCCCN)C(=O)N[C@H](C(=O)N[C@@H](Cc1ccc(O)cc1)C(N)=O)[C@@H](C)O)C(C)C)[C@@H](C)O
notes: also called 35; compound 35
B2: N^ε1-[(4S)-4-carboxy-4-(19-carboxynonadecanoylamino)butanoyl]-[His14,Arg17,Pro21,Pro27,Pro31]-h-amylin (peptide)
peptide: K([γGlu-C20 diacid])CNTATCATQRLAHFLRHSSPNFGAIPSSTPVGSNTY-NH2
modifications: disulfide 2-7; N-terminus assumed
SMILES: CC[C@H](C)[C@H](NC(=O)[C@H](C)NC(=O)CNC(=O)[C@H](Cc1ccccc1)NC(=O)[C@H](CC(N)=O)NC(=O)[C@@H]1CCCN1C(=O)[C@H](CO)NC(=O)[C@H](CO)NC(=O)[C@H](Cc1c[nH]cn1)NC(=O)[C@H](CCCNC(=N)N)NC(=O)[C@H](CC(C)C)NC(=O)[C@H](Cc1ccccc1)NC(=O)[C@H](Cc1c[nH]cn1)NC(=O)[C@H](C)NC(=O)[C@H](CC(C)C)NC(=O)[C@H](CCCNC(=N)N)NC(=O)[C@H](CCC(N)=O)NC(=O)[C@@H](NC(=O)[C@H](C)NC(=O)[C@@H]1CSSC[C@H](NC(=O)[C@@H](N)CCCCNC(=O)CC[C@H](NC(=O)CCCCCCCCCCCCCCCCCCC(=O)O)C(=O)O)C(=O)N[C@@H](CC(N)=O)C(=O)N[C@@H]([C@@H](C)O)C(=O)N[C@@H](C)C(=O)N[C@@H]([C@@H](C)O)C(=O)N1)[C@@H](C)O)C(=O)N1CCC[C@H]1C(=O)N[C@@H](CO)C(=O)N[C@@H](CO)C(=O)N[C@H](C(=O)N1CCC[C@H]1C(=O)N[C@H](C(=O)NCC(=O)N[C@@H](CO)C(=O)N[C@@H](CC(N)=O)C(=O)N[C@H](C(=O)N[C@@H](Cc1ccc(O)cc1)C(N)=O)[C@@H](C)O)C(C)C)[C@@H](C)O
notes: also called 62; compound 62
B3: N^ε1-[(4S)-4-carboxy-4-(19-carboxynonadecanoylamino)butanoyl]-[His14,Arg17,Pro21,Pro27,His35]-h-amylin (peptide)
peptide: K([γGlu-C20 diacid])CNTATCATQRLAHFLRHSSPNFGAIPSSTNVGSHTY-NH2
modifications: disulfide 2-7; N-terminus assumed
SMILES: CC[C@H](C)[C@H](NC(=O)[C@H](C)NC(=O)CNC(=O)[C@H](Cc1ccccc1)NC(=O)[C@H](CC(N)=O)NC(=O)[C@@H]1CCCN1C(=O)[C@H](CO)NC(=O)[C@H](CO)NC(=O)[C@H](Cc1c[nH]cn1)NC(=O)[C@H](CCCNC(=N)N)NC(=O)[C@H](CC(C)C)NC(=O)[C@H](Cc1ccccc1)NC(=O)[C@H](Cc1c[nH]cn1)NC(=O)[C@H](C)NC(=O)[C@H](CC(C)C)NC(=O)[C@H](CCCNC(=N)N)NC(=O)[C@H](CCC(N)=O)NC(=O)[C@@H](NC(=O)[C@H](C)NC(=O)[C@@H]1CSSC[C@H](NC(=O)[C@@H](N)CCCCNC(=O)CC[C@H](NC(=O)CCCCCCCCCCCCCCCCCCC(=O)O)C(=O)O)C(=O)N[C@@H](CC(N)=O)C(=O)N[C@@H]([C@@H](C)O)C(=O)N[C@@H](C)C(=O)N[C@@H]([C@@H](C)O)C(=O)N1)[C@@H](C)O)C(=O)N1CCC[C@H]1C(=O)N[C@@H](CO)C(=O)N[C@@H](CO)C(=O)N[C@H](C(=O)N[C@@H](CC(N)=O)C(=O)N[C@H](C(=O)NCC(=O)N[C@@H](CO)C(=O)N[C@@H](Cc1c[nH]cn1)C(=O)N[C@H](C(=O)N[C@@H](Cc1ccc(O)cc1)C(N)=O)[C@@H](C)O)C(C)C)[C@@H](C)O
notes: also called 66; compound 66
B4: N^ε1-[(4S)-4-carboxy-4-(19-carboxynonadecanoylamino)butanoyl]-[His14,Arg17,Pro21,Pro27,Arg34]-h-amylin (peptide)
peptide: K([γGlu-C20 diacid])CNTATCATQRLAHFLRHSSPNFGAIPSSTNVGRNTY-NH2
modifications: disulfide 2-7; N-terminus assumed
SMILES: CC[C@H](C)[C@H](NC(=O)[C@H](C)NC(=O)CNC(=O)[C@H](Cc1ccccc1)NC(=O)[C@H](CC(N)=O)NC(=O)[C@@H]1CCCN1C(=O)[C@H](CO)NC(=O)[C@H](CO)NC(=O)[C@H](Cc1c[nH]cn1)NC(=O)[C@H](CCCNC(=N)N)NC(=O)[C@H](CC(C)C)NC(=O)[C@H](Cc1ccccc1)NC(=O)[C@H](Cc1c[nH]cn1)NC(=O)[C@H](C)NC(=O)[C@H](CC(C)C)NC(=O)[C@H](CCCNC(=N)N)NC(=O)[C@H](CCC(N)=O)NC(=O)[C@@H](NC(=O)[C@H](C)NC(=O)[C@@H]1CSSC[C@H](NC(=O)[C@@H](N)CCCCNC(=O)CC[C@H](NC(=O)CCCCCCCCCCCCCCCCCCC(=O)O)C(=O)O)C(=O)N[C@@H](CC(N)=O)C(=O)N[C@@H]([C@@H](C)O)C(=O)N[C@@H](C)C(=O)N[C@@H]([C@@H](C)O)C(=O)N1)[C@@H](C)O)C(=O)N1CCC[C@H]1C(=O)N[C@@H](CO)C(=O)N[C@@H](CO)C(=O)N[C@H](C(=O)N[C@@H](CC(N)=O)C(=O)N[C@H](C(=O)NCC(=O)N[C@@H](CCCNC(=N)N)C(=O)N[C@@H](CC(N)=O)C(=O)N[C@H](C(=O)N[C@@H](Cc1ccc(O)cc1)C(N)=O)[C@@H](C)O)C(C)C)[C@@H](C)O
notes: also called 85; compound 85
B5: N^ε1-[(4S)-4-carboxy-4-(19-carboxynonadecanoylamino)butanoyl]-[Glu14,Arg17,Pro21,Pro27,Arg35]-h-amylin (peptide)
peptide: K([γGlu-C20 diacid])CNTATCATQRLAEFLRHSSPNFGAIPSSTNVGSRTY-NH2
modifications: disulfide 2-7; N-terminus assumed
SMILES: CC[C@H](C)[C@H](NC(=O)[C@H](C)NC(=O)CNC(=O)[C@H](Cc1ccccc1)NC(=O)[C@H](CC(N)=O)NC(=O)[C@@H]1CCCN1C(=O)[C@H](CO)NC(=O)[C@H](CO)NC(=O)[C@H](Cc1c[nH]cn1)NC(=O)[C@H](CCCNC(=N)N)NC(=O)[C@H](CC(C)C)NC(=O)[C@H](Cc1ccccc1)NC(=O)[C@H](CCC(=O)O)NC(=O)[C@H](C)NC(=O)[C@H](CC(C)C)NC(=O)[C@H](CCCNC(=N)N)NC(=O)[C@H](CCC(N)=O)NC(=O)[C@@H](NC(=O)[C@H](C)NC(=O)[C@@H]1CSSC[C@H](NC(=O)[C@@H](N)CCCCNC(=O)CC[C@H](NC(=O)CCCCCCCCCCCCCCCCCCC(=O)O)C(=O)O)C(=O)N[C@@H](CC(N)=O)C(=O)N[C@@H]([C@@H](C)O)C(=O)N[C@@H](C)C(=O)N[C@@H]([C@@H](C)O)C(=O)N1)[C@@H](C)O)C(=O)N1CCC[C@H]1C(=O)N[C@@H](CO)C(=O)N[C@@H](CO)C(=O)N[C@H](C(=O)N[C@@H](CC(N)=O)C(=O)N[C@H](C(=O)NCC(=O)N[C@@H](CO)C(=O)N[C@@H](CCCNC(=N)N)C(=O)N[C@H](C(=O)N[C@@H](Cc1ccc(O)cc1)C(N)=O)[C@@H](C)O)C(C)C)[C@@H](C)O
notes: also called 51; compound 51
B6: N^ε1-[(4S)-4-carboxy-4-(19-carboxynonadecanoylamino)butanoyl]-[His14,Arg17,Pro21,Pro27,His34]-h-amylin (peptide)
peptide: K([γGlu-C20 diacid])CNTATCATQRLAHFLRHSSPNFGAIPSSTNVGHNTY-NH2
modifications: disulfide 2-7; N-terminus assumed
SMILES: CC[C@H](C)[C@H](NC(=O)[C@H](C)NC(=O)CNC(=O)[C@H](Cc1ccccc1)NC(=O)[C@H](CC(N)=O)NC(=O)[C@@H]1CCCN1C(=O)[C@H](CO)NC(=O)[C@H](CO)NC(=O)[C@H](Cc1c[nH]cn1)NC(=O)[C@H](CCCNC(=N)N)NC(=O)[C@H](CC(C)C)NC(=O)[C@H](Cc1ccccc1)NC(=O)[C@H](Cc1c[nH]cn1)NC(=O)[C@H](C)NC(=O)[C@H](CC(C)C)NC(=O)[C@H](CCCNC(=N)N)NC(=O)[C@H](CCC(N)=O)NC(=O)[C@@H](NC(=O)[C@H](C)NC(=O)[C@@H]1CSSC[C@H](NC(=O)[C@@H](N)CCCCNC(=O)CC[C@H](NC(=O)CCCCCCCCCCCCCCCCCCC(=O)O)C(=O)O)C(=O)N[C@@H](CC(N)=O)C(=O)N[C@@H]([C@@H](C)O)C(=O)N[C@@H](C)C(=O)N[C@@H]([C@@H](C)O)C(=O)N1)[C@@H](C)O)C(=O)N1CCC[C@H]1C(=O)N[C@@H](CO)C(=O)N[C@@H](CO)C(=O)N[C@H](C(=O)N[C@@H](CC(N)=O)C(=O)N[C@H](C(=O)NCC(=O)N[C@@H](Cc1c[nH]cn1)C(=O)N[C@@H](CC(N)=O)C(=O)N[C@H](C(=O)N[C@@H](Cc1ccc(O)cc1)C(N)=O)[C@@H](C)O)C(C)C)[C@@H](C)O
notes: also called 81; compound 81

Numbered stars: 1 amine (or outer) side, 2 acyl side, 3 side chain; on linkers, the order of the positions; unused ones are H or OH. Bridge positions count the residues as written; N and C are the ends. Side chains are listed from the residue outwards. Ends that are not written are not given here. * marks the point of attachment. C20 diacid = O=C(O)CCCCCCCCCCCCCCCCCCC(=O)*; γGlu = O=C(O)[C@H](CCC(=O)[*:2])N[*:1]

In this test the target is T1, human amylin receptor (amylin 3(a) …). As to the kind of experiment: SPA displacement of 125I-rat amylin, hAmylin 3(a) receptor membranes. In outline:
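One-site competition analysis of SPA counts yielded IC₅₀ as a measure of affinity. Membranes were at 35 ng/μL final; incubation was 120 min at 25° C, pH 7.4.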
As for B1, the IC50 amounted to 0.97 nM.

For the molecule B2, the half-inhibitory concentration (IC50) is 0.098 nM.

With B3, the IC50 was 0.396 nM.

For the molecule B4, the IC50 turned out to be 0.876 nM.

For B5, the IC50 came out at 0.828 nM.

As to B6, the IC50 worked out at 0.271 nM.
